Test results as given in US20210349096A1.

Target: LILRB4 on human monocytic AML THP-1 cells (human) (UniProt Q8NHJ6)
Experiment: flow cytometry, anti-His tag-APC alone on wild-type THP-1 cells (negative control); lilrb4-knockout THP-1 cells in the same panel: KO 0.9% [panel e]

Chain of LILRB4 on human monocytic AML THP-1 cells (human) (Q8NHJ6 22-448): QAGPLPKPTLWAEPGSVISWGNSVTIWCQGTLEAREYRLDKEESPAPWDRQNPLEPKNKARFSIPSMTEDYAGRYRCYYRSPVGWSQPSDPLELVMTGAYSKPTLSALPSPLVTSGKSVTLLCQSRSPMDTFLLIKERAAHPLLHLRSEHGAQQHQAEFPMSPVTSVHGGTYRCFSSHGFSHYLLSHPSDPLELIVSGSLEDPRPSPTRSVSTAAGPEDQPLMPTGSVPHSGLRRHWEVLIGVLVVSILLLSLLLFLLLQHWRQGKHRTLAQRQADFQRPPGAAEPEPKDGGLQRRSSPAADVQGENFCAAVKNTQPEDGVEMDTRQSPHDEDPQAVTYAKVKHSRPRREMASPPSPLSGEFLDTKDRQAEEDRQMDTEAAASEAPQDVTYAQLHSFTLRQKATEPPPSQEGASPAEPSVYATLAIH

% of cells in the positive gate: 0.4%
Substance: Ctrl (anti-His tag-APC) (antibody)
